The source of these data is PMC8273494.

Broadly, the Kd is a measure of binding affinity in units of concentration. Lower therefore signals tighter binding.

This data set has as its target hnRNP A1 internal_change (UniProt P09651). In words: SPR. The conditions noted are these: hnRNP A1 immobilized; very hard to regenerate; called non-special binding; phosphorothioate at all 30 linkages (stereorandom); SPR: 10 mM PBS (138 mM NaCl, 2.7 mM KCl, 10 mM Na2HPO4, 1.76 mM KH2PO4, 0.05% Tween-20), pH 7.4, 25 C, aptamer 0.39-50 nM; BLI: biotinylated aptamer on SA ….

Chain of hnRNP A1 internal_change (P09651 other isoform, or with tags, fused parts or gaps): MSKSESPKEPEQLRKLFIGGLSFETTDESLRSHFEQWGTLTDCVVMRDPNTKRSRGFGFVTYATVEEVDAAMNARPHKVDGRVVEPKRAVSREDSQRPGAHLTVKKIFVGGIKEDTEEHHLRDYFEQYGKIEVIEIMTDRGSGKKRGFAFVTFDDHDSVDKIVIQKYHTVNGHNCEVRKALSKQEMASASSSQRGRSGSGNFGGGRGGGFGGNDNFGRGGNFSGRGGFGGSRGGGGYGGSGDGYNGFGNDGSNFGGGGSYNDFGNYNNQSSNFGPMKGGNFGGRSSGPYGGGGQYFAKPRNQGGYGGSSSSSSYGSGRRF

The sequence TGTGGCGAGGTAGGTGGGGTGTGTGTGTATC [WW-20] had a Kd of 0.014 nM.
